In IntAct's records for PubMed 20389281:

Legend:
snai1_human SNAI1 [1] = biological target: snai1_human SNAI1 (UniProt O95863)
snai1_human SNAI1 [2] = biological target: snai1_human SNAI1 (UniProt O95863); remark: listed apart in the source

snai1_human SNAI1, sequence (O95863 whole entry): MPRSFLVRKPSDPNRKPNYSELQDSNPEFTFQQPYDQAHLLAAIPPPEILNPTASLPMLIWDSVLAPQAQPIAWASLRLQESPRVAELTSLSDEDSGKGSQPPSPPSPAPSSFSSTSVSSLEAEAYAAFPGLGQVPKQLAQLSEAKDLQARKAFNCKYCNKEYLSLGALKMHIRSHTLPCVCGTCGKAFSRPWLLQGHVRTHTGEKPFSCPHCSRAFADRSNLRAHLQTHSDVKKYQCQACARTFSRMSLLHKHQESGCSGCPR

Substance | effect of a mutation on the interaction (snai1_human SNAI1 [1]) | effect of a mutation on the interaction (snai1_human SNAI1 [2])
Lysine-specific histone demethylase 1A (Homo sapiens) (from UniProt O60341) E379A | disrupting interaction | –
Lysine-specific histone demethylase 1A (Homo sapiens) (from UniProt O60341) D375A | disrupting interaction | –
Lysine-specific histone demethylase 1A (Homo sapiens) (from UniProt O60341) D556A | – | disrupting interaction
Lysine-specific histone demethylase 1A (Homo sapiens) (from UniProt O60341) D555A | – | disrupting interaction
Lysine-specific histone demethylase 1A (Homo sapiens) (from UniProt O60341) D553A | – | disrupting interaction
